Results from patent publication US20210371508A1 (University of Texas, published 2021).

What was measured:
[1] = target: T1, transferrin receptor 1 (TFRC) (human, UniProt P02786 1-760); assay: co-IP with α-NMES1 from Ctrl 1833 cells, western blot for TFRC; strong TFRC band
T1 construct: Endogenous protein in cell or membrane extracts used for co-IP

[2] = target: T1, transferrin receptor 1 (TFRC); assay: co-IP with α-NMES1 from NMES1-KD 1833 cells, western blot for TFRC; weaker TFRC band, number is normalised to the lower input
[3] = target: T2, recombinant human NMES1 protein (Normal Mucosa of Esophagus Specific 1) (human, UniProt Q9C002 1-83, limits assumed); assay: titration ELISA, plate coated with recombinant NMES1 (1 µg/mL), anti-human IgG Fc HRP detection
T2 construct: also called rhNMES1; recombinant NMES1 protein
Protocol: (§1) Binding constants (EC50) of a panel of monoclonal antibodies were estimated by titration ELISA and data is analyzed using the 4 parameter curve fitting with GraphPad Prism program (Table 5). […] All experiments were performed with shaking at 1,000 rpm. Background wavelength shifts were measured from reference biosensors that were loaded only with antibody with antigen. ForteBio's data analysis software was used to fit the data to a 1:1 binding model to extract an association rate and dissociation rate.
Anti-human IgG Fc HRP-conjugated antibody was diluted 1:5000 and added at a volume of 100 μl per well for incubation at 37° C. for 1 hour. The plates were washed 3 times with PBST (0.05% Tween-20) between incubation steps. TMB substrate was added 100 μl per well for color development and 2 M H2504 was added 50 μl per well to stop the reaction. The absorbance at 450 nm was read by SpectraMax microplate reader. For EC50 determination, data points were plotted by GraphPad Prism8. EC50 values were calculated using a three-parameter nonlinear model.

[4] = target: T2, recombinant human NMES1 protein (Normal …); assay: BLI (Octet), antibody on protein A biosensors, recombinant NMES1 0-900 nM, 1:1 fit
Protocol: as §1

T1 sequence (P02786 whole entry): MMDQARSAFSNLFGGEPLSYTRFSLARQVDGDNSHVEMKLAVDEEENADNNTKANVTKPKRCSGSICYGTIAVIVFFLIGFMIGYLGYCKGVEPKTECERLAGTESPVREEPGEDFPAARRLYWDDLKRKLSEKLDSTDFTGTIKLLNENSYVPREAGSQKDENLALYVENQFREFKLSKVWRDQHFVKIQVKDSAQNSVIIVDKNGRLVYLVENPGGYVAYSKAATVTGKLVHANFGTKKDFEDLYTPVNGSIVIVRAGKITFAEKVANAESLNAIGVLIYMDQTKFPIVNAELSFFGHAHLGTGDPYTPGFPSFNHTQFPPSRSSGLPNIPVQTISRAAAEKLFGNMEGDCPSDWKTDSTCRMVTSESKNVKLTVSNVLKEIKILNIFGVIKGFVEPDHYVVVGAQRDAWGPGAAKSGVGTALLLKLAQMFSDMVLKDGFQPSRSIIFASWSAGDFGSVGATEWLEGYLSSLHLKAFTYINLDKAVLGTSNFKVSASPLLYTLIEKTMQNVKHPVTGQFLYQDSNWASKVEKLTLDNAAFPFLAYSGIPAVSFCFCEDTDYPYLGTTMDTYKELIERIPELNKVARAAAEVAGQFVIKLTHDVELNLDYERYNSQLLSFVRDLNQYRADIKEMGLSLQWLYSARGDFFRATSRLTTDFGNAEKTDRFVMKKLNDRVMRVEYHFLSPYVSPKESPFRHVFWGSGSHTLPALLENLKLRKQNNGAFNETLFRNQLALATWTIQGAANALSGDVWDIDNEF

Row | Fold (IP/Input), TFRC [1] [fold] | Fold (IP/Input), TFRC [2] [fold] | EC50 [3] [nM] | Kd [4] [nM] | koff [4] [s⁻¹] | kon [4] [M⁻¹ s⁻¹] | Binder
1 | 79.8 | 74.9 |  |  |  |  | NMES1, endogenous, in human breast cancer cells (BoM-1833) (ligand, UniProt Q9C002 1-83, looked up, Endogenous protein of the cells used for co-IP and for the cell assays; also called C15orf48) MSFFQLLMKRKELIPLVVFMTVAAGGASSFAVYSLWKTDVILDRKKNPEPWETVDPTVPQKLITINQQWKPIEELQNVQRVTK
2 |  |  | 2.39 | 19.5 | 0.00441 | 227000 | NMES-6 anti-NMES1 monoclonal antibody (antibody, IgG1, V domains shown, also called NM-6; NMES1-6) VH: QVQLVQSGAEVKKPGASVKVSCKASGYTFTSYGISWVRQAPGQGLEWMGWISAYNGNTNYAQKLQGRVTMTTDTSTSTAYMELRSLRSDDTAVYYCARAVGQLAFDYWGQGTLVTVSS VL: QSALNQPPSASGSPGQSVTISCTGTSSDVGGYNYVSWYQQHPGKAPKLMIYEVSKRPSGVPDRFSGSKSGNTASLTVSGLQAEDEADYYCSSYAGSNNLVFGGGTKVTVL
3 |  |  | 40.6 | 56 | 0.00301 | 53800 | NMES-3 anti-NMES1 monoclonal antibody (antibody, IgG1, V domains shown, also called NM-3; NMES1-3) VH: EVQLLQSGGGVVRPGGSLRLSCAASGFTFDDYGMSWVRQAPGKGLEWVSGINWNGGSTGYADSVKGRFTISRDNAKNSLYLQMNSLRAEDTALYYCARASMVRGVYAFDIWGQGTMVIVSS VL: DVQMTQSPSSLSASIGDRVTITCRASQSIGSYLNWYQQRPGKAPKLLIYSASSLQSGVPSRFSGSGSRSDFTLTIASLQPEDFATYYCQQSYSGPYTFGQGTKVDIK
4 |  |  | 4.37 | 17.1 | 0.00382 | 223000 | NMES-4 anti-NMES1 monoclonal antibody (antibody, IgG1, V domains shown, also called NM-4; NMES1-4) VH: EVQLVQSGGEVKKPGSSVKVSCKASGGTFSTYAISWVRQAPGQGLEWMGGIIPIFGTTNYAQKFQGRVTITADRSTSTAYMELSSLRSEDTAVYYCARVSELGDYYAMDVWGQGTTVTVSS VL: DIQMTQSPSSLSASVGDRVTITCRASQGIASALAWYQQKPGKAPKLLIYDASNLESGVPSRFSGSGSGTDFTLTISSLQPEDFATYYCQQAHSFPLTFGGGTKLEIK

The next lines start with the binder.

Row | Binder | Fold (IP/Input), TFRC [1] [fold] | Fold (IP/Input), TFRC [2] [fold] | EC50 [3] [nM] | Kd [4] [nM] | koff [4] [s⁻¹] | kon [4] [M⁻¹ s⁻¹]
5 | NMES-7 anti-NMES1 monoclonal antibody (antibody, IgG1, V domains shown, also called NM-7; NMES1-7) VH: EVQLVQSGAEVKKPGASVKVSCKASGYTFNRDAISWVRQAPGQGLEWMGWISGYNGNTYYAHKVLGRATMTTDTSTNTAYMELRSLTSDDTAMYYCARVGLQPDTTMDHWGQGTLVTVSS VL: DIQMTQSPSSLSASVGDRVTITCRASQDIRNDLAWYQQKPGKAPKLLIYTASSLQTGVPSRFSGSGSGTDFTLSISSLQPEDFATYYCLQDYKYPLTFGGGTKLEIK |  |  | 14.4 | 39.8 | 0.00595 | 150000
6 | NMES-5 anti-NMES1 monoclonal antibody (antibody, IgG1, V domains shown, also called NM-5; NMES1-5) VH: QVQLVQSGAEVKKPGASVKVSCKASGYTFTSYGISWVRQAPGQGLEWMGWISAYNGNTNYAQKLQGRVTMTTDTSTSTAYMELRSLRSDDTAVYYCARATRGNAFDIWGQGTMVSVSS VL: QSALTQPASVSGSPGQSITISCTGTSSDVGAYNYVSWYQQHPGKAPKLMIYDVSNRPSGVSNRFSGSKSGNTASLTISGLQAEDEADYYCSSYTRSTTVVFGGGTKVTVL |  |  | 0.216 | 27.9 | 0.00463 | 166000
7 | NMES-10 anti-NMES1 monoclonal antibody (antibody, IgG1, V domains shown, also called NM-10; NMES1-10) VH: QVQLVQSGAEVKKPGASVKVSCKASGYTFTSYGISWVRQAPGQGLEWMGWISAYNGNTNYAQKLQGRVTMTTDTSTSTAYMELRSLRSDDTAVYYCARATFGNAFDIWGQGTTVTVSS VL: QSALTQPASVSGSPGQSITISCTGTSSDVGGYNYVSWYQQHPGKAPKLMIYDVSNRPSGVSNRFSGSKSGNTASLTISGLQAEDEADYYCSSYTSSSTLVVFGGGTKVTVL |  |  | 306 | 89.9 | 0.0131 | 146000
8 | NMES-1 anti-NMES1 monoclonal antibody (antibody, V domains shown, also called NM-1; NMES1-1) VH: QVQLVQSGGGVVQPGRSLRLSCAASGFTFSSYAMHWVRQAPGKGLEWVAVISYDGSNKYYADSVKGRFTISRDNSKNTLYLQMNSLRAEDTAVYYCARLSRFGDESLKDPDYWGQGTLVTVSS VL: DIVMTQSPLSLPVTLGQPASISCRSSQSLVHSDGNTYLNWFQQRPGQSPRRLIYKVSNRDSGVPDRFSGSGSGTDFTLKISRVEAEDVGVYYCMQGAHWPPTFGPGTKLEIK |  |  | 2.98 | 15.5 | 0.00499 | 323000
